Where a chain is given by its changes, count along the chain named.
B1: I23RB42 (antibody, mouse IgG2a, kappa, V domains shown)
VH: EVQLQQSGAELVKPGASVKISCKASGYSFTDYIMNWVKQSHGKSLEWIGNINPYFGFTSYNQEFKGKATLTVDKSSSTAYMLLNSLTSEDSAVYYCSRGSYYGYETFFDYWGQGTTLTVSS
VL: DIVLTQTAPSVPVTPGESVSISCRSSKSLLHSNGNTYLYWFLQRPGQSPQLLIYRMSNLASGVPDRFSGSGSGTAFTLRISRVEAEDVGVYYCMQHLEYPYTFGSGTRLEIKR
notes: immunization; mouse IgG2a/kappa
B2: I23RB85 (antibody, mouse IgG2a, kappa, V domains shown)
VH: DVQLQESGPGLVAPSQSLSITCTVSGFSFNTYAITWVRQPPGRGLEWLGVLWPGGGISYNLALKSRLTISRDSSKSQVFLEMNSLQTDDTARYYCARNWRHYDGSYAMDFWGQGTSVTVSS
VL: DIVLTQSPLSLFVSLGDQASISCRSSQSLVHSNGNTYLHWYLQKPGQSPKLLIYKVSNRFSGVPDRFSGSGSGTDFTLKISRVEAEDLGVYFCSQSTHVPWTFGGGTRLEIKR
notes: as for B1
B3: I23RB318 (antibody, mouse IgG2a, kappa, V domains shown)
VH: QVQLVQSGAEVKKPGSSVKVSCKASGGTFSSYAISWVRQAPGQGLEWMGGIIPIFGTANYAQKFQGRVTITADESTSTAYMELSSLRSEDTAVYYCARVRARHRGSFDYWGQGTLVTVSS
VL: DIQMTQSPSSLSASVGDRVTITCRASQSIDRWLNWYQQKPGKAPKLLIYYASSLQSGVPSRFSGSGSGTDFTLTISSLQPEDFATYYCQQSYSTPLTFGQGTKVEIKR
notes: phage display; human V, mouse IgG2a/kappa
B4: I23RB45 (antibody, mouse IgG2a, kappa, V domains shown)
VH: QVTLKESGPGILQPSQTLSLTCSFSGFSLSTYGMGVSWIRQPSGKGLEWLAHIYWDDDKRYNPSLKSRLTISKDTSNNQVFLKITSVDTADTATYYCAQRALPLLGQKAPFDYWGQGTTLTVSS
VL: DIVLTQSQKFISTSVGDRVSITCKASQNVRTAVAWYQQKPGQSPKLLIYLPSNRHTGVPDRFTGSGSGTVFTLTISNVQSEDQADYFCLQHWNYPLTFGAGTKLELKR
notes: as for B1
B5: I23RB30 (antibody, mouse IgG2a, kappa, V domains shown)
VH: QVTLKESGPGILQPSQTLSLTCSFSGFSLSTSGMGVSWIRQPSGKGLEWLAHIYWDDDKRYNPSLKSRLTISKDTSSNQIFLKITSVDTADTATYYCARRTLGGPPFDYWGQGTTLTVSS
VL: B4 VL with K9R, I11M, V29I, L46A, V70D, Q83L
notes: as for B1
B6: I23RB153 (antibody, mouse IgG2a, kappa, V domains shown)
VH: EVKLVESGGGLVQPGGSLKLSCAASGFTFSSDTMSWVRQTPEKRLELVAEISSNGGSTYHIDTVKGRFTISRDNAKNTLYLQMSSLKSEDTAMYYCASPGYPWFAYWGQGTTVTVSA
VL: DIVMTQSHRFMSTSVGERVSITCKASQDVGNAVAWYQQKPGQSPKLLIYWTSTRHNGVPDRFTGSGSGTDFTLTISNVQGEDLADYFCQQYNRYPLTFGSGTKLEIKR
notes: as for B1
B7: I23RB56 (antibody, mouse IgG2a, kappa, V domains shown)
VH: EVKLVESGGGLVKPGGSLKLSCAASGFTFSSYAMSWVRQTPEKRLEWVAAINSNDGSTYYPDTVKDRFTISRDNAKNTLYLQMSSLRSEDTALYYCARHFLYFSNFYYFDYWGQGTTLTVSS
VL: DIVMTQSPKFLLVSAGDRVTITCKASQSVSNDVAWYQQKPGQSPKLLIYYASNRYTGVPDRFTGSGYGTVFTFTISTVQAEDLAVYFCQQDYSSPFTFGSGTKLEIKR
notes: as for B1
B8: I23RB330 (antibody, mouse IgG2a, kappa, V domains shown)
VH: QVQLVQSGAEVKKPGSSVKVSCKASGGTFSSYAISWVRQAPGQGLEWMGGIIPIFGTANYAQKFQGRVTITADESTSTAYMELSSLRSEDTAVYYCARDRSYSYGLSGLGYYGFDYWGQGTLVTVSS
VL: EIVLTQSPATLSLSPGERATLSCRASQSVSSYLAWYQQKPGQAPRLLIYDASNRATGIPARFSGSGSGTDFTLTISSLEPEDFAVYYCQQRSNTPLTFGQGTKVEIKR
notes: as for B3
B9: I23RB332 (antibody, mouse IgG2a, kappa, V domains shown)
VH: QVQLQQPGAELVMPGASVKLSCKASGYTFTSYWMHWVKQRPGQGLEWIGEIDPSDSYTNYNQKFKGKSTLTVDKSSSTAYMQLSSLTSEDSAVYYCARSYAFDYWGQGTTVTVSS
VL: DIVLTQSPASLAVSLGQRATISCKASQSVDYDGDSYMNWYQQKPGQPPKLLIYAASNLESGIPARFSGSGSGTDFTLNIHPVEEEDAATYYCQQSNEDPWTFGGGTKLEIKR
notes: phage display; mouse V, mouse IgG2a/kappa
B10: I23RB104 (antibody, mouse IgG2a, kappa, V domains shown)
VH: EVKLVESGGGLVKPGGSLKLSCAASGFTFSSYAMSWVRQTPEKRLDWVASISTGGSTYYPDSVKGGFTISRDIARNTLSLQMTSLRSEDTAMYYCARGPHYYGGSYPFAYWGQGTTLTVSS
VL: DIQMTQSPASLSVSVGETVTITCRASENIYSNLAWYQQKQGKSPQLLVYAATNLADGVPSRFSGSGSGTQYSLKINSLQSEDFGSYYCQHFWGTPPTFGSGTKLEIKR
notes: as for B1
B11: I23RB328 (antibody, mouse IgG2a, kappa, V domains shown)
VH: QVQLVQSGAEVKKPGSSVKVSCKASGGTFSSYAISWVRQAPGQGLEWMGGIIPIFGTANYAQKFQGRVTITADESTSTAYMELSSLRSEDTAVYYCARGRYIRSYDYFDYWGQGTLVTVSS
VL: B8 VL with I58V, S67T, E79Q, F83V, S92N, N93S
notes: as for B3
B12: I23RB278 (antibody, mouse IgG2a, kappa, V domains shown)
VH: EVQLLESGGGLVQPGGSLRLSCAASGFTFSSYAMSWVRQAPGKGLEWVSAISGSGGSTYYADSVKGRFTISRDNSKNTLYLQMNSLRAEDTAVYYCVRGGSLGGGFYFDYWGQGTLVTVSS
VL: not shown
notes: as for B3
B13: I23RB9 (antibody, mouse IgG2a, kappa, V domains shown)
VH: B8 VH
VL: B8 VL with T94W
notes: as for B3
B14: I23RB6 (antibody, mouse IgG2a, kappa, V domains shown)
VH: B11 VH
VL: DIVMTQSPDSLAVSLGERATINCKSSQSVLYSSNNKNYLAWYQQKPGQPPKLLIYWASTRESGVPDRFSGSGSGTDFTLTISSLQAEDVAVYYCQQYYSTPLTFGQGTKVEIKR
notes: as for B3

molecular target: T1, human IL-23R expressed on the cell surface of stably transfected iLite and HEK cell lines (human, UniProt Q5VWK5 24-629); assay: flow cytometry on human IL-23R HEK cells, Expt E (11-point, 384well)
T1 construct: whole, on cells; Same receptor on two transfected cell lines; the cell line is named under assay; also called human IL-23R iLite cells; human IL-23R HEK cells
T1 sequence (looked up): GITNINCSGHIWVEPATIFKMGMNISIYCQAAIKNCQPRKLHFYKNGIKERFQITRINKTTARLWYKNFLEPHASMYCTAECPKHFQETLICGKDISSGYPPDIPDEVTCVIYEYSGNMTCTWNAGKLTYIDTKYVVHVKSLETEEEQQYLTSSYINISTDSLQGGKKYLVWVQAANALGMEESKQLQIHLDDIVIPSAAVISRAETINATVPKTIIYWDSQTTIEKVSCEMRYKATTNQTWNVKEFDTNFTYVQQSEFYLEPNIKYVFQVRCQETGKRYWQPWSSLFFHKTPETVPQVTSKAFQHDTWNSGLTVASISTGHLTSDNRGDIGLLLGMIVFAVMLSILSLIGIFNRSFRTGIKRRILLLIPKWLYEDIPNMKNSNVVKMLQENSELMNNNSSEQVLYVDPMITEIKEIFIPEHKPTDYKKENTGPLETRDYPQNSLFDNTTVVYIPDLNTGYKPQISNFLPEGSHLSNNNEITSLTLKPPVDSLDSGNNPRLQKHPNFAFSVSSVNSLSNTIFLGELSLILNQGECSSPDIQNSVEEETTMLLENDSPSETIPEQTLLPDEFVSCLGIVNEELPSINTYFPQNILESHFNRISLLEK
How it was run: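 Antibody bound to HEK-IL-23R cells 30 min at 37 °C over 11 concentrations; after washes, Sytox Green added and cells run on iQue. Geometric MFI of 647 detection antibody on single viable cells fitted by variable-slope dose–response.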

For B1, which EC50 is on record?
The EC50 was 3.1 nM.

What about the “MFI (6.4 nM)” value of the same binder?
Its value is 353000 MFI.

For B2, which EC50 is on record?
Its EC50 is 13.5 nM.

And the “MFI (6.4 nM)” value?
The value was 64000 MFI.

Which results are given for B3?
EC50: 7.1 nM; MFI (6.4 nM): 196000 MFI

For B4, which EC50 is on record?
The EC50 was 4.5 nM.

What about the “MFI (6.4 nM)” value of the same binder?
Its value is 228000 MFI.

With B5 as the binder, how does the EC50 read?
The EC50 was 8.3 nM.

And the “MFI (6.4 nM)” value?
Its value is 185000 MFI.

What does the source list for B6?
EC50: > 50 nM; MFI (6.4 nM): 52800 MFI

How did the EC50 turn out when B7 was run?
Its EC50 is over 50 nM.

And the “MFI (6.4 nM)” value?
Its value is 118000 MFI.

molecular target: T1, human IL-23R expressed on the cell …; assay: flow cytometry on human IL-23R HEK cells, Expt D (8-point, 96well)
How it was run: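 Serially diluted IL-23R mAbs bound to mixed HEK-IL-23R and parental HEK cells for 30 min at 37 °C, in duplicate. After washes, 647 detection antibody geometric MFI measured on single viable (Sytox Green-negative) cells and fitted to a variable-slope dose-response against log mAb concentration.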

B1 was tested. Which EC50 did it give?
Its EC50 is 0.2 nM.

For B2, which EC50 is on record?
The EC50 was about 0.6 nM.

B3 was tested. Which EC50 did it give?
The EC50 was 0.5 nM.

For B4, which EC50 is on record?
The EC50 was 0.4 nM.

B5 was tested. Which EC50 did it give?
Its EC50 is 1.2 nM.

For B6, which EC50 is on record?
Its EC50 is 4.4 nM.

For B7, which EC50 is on record?
Its EC50 is 0.7 nM.

molecular target: T2, human IL-23R extracellular domain (ECD) protein (human, UniProt Q5VWK5 24-355); assay: column 'Affinity to hu IL-23R ECD' (summary of SPR data)
T2 construct: Recombinant ECD; also called hu IL-23R ECD
T2 sequence: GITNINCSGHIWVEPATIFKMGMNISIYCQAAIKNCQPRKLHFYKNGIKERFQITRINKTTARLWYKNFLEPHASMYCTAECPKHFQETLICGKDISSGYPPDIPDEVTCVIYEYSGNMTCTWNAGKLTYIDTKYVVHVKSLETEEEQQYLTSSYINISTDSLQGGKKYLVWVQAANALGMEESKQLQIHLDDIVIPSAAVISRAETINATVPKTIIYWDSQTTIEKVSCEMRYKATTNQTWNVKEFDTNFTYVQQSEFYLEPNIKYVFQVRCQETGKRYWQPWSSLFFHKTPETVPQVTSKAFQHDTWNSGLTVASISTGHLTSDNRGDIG

For B1, which Kd is on record?
Its Kd is at most 0.1 nM.

Which Kd does the source give for B2 here?
The Kd was 1 nM.

How did the Kd turn out when B3 was run?
The Kd was 21 nM.

How did the Kd turn out when B4 was run?
Its Kd is 2 nM.

Which Kd does the source give for B5 here?
Its Kd is 36 to 46 nM.

With B6 as the binder, how does the Kd read?
Its Kd is 2 nM.

For B7, which Kd is on record?
The Kd was 26 to 68 nM.

molecular target: T1, human IL-23R expressed on the cell …; assay: flow cytometry on human IL-23R HEK cells, Expt D (8-point, 96well); legend: N-No cell binding observed
Procedure: HEK-IL-23R cell concentration response mAb binding (8-point, 96-well assay). […] HEK-IL-23R and HEK-parental cells (12.5 μL of each, 120000 cells total) were plated in 2× replicate on 96-well V-bottom plates (Corning, Cat #3357) into 37° C. warmed Assay medium containing serially diluted IL-23R mAbs to a final volume of 150 μL. IL-23R mAbs were allowed to bind to cells for 30 minutes, at 37° C. […] Cells were next washed twice in ice-cold stain buffer, then resuspended in a final volume of 30 μL with Sytox Green viability dye (ThermoFisher, Cat #S7020). Plates were kept on ice until run for analysis on the iQue. All washes were performed by centrifugation (800 rcf, 3 minutes) followed by flick decantation to remove supernatants. Cell-binding to HEK-IL-23R cells was measured with FlowJo, by gating for single, viable cells and determining the geometric mean fluorescence intensity (MFI) for the 647 detection antibody. Geometric mean fluorescence intensities were plotted over log mAb concentrations fitted with a dose response curve with variable slope using GraphPad Prism.

Does B8 bind?
Result: no binding

Does B9 bind?
Result: no binding

Does B10 bind?
Result: no binding

Does B11 bind?
Result: no binding

Does B12 bind?
Result: no binding

molecular target: T1, human IL-23R expressed on the cell …; assay: flow cytometry on human IL-23R iLite cells, Expt A (1-point)
Procedure: Human IL-23R iLiTe cell single concentration mAb Binding. Anti-IL-23R mouse IgG₂ₐ mAbs derived from phage panning were tested for binding to human IL-23R expressing iLiTe cells, where a PE conjugated anti mouse secondary antibody detected mAbs bound to the receptor on the cells. […] The next day 100,000 cells were added to each well of a 96 well V bottom plate (Costar, Catalog #3357), centrifuged at 450× gravity for 2 minutes, and then supernatants were decanted. […] Antibodies diluted to 3 μg/mL in Stain Buffer (BSA) (BD Pharmagen, Catalog #554657) were added at 100 μL/well and incubated on ice for 50 minutes, then plates were centrifuged and supernatants were decanted. […] Cells were washed by adding 100 μL/well of Stain Buffer followed by centrifugation and decanting of the supernatants. Cells were resuspended in 100 μL/well of Stain Buffer and analyzed on the Becton Dickenson LSR II FACS instrument with HTS module. Data was analyzed using FlowJo software (Treestar) to obtain geometric mean fluorescence intensities.

B13 was tested. Which “MFI @ 20 nM” value did it give?
The value was 86 MFI.

Which “MFI @ 20 nM” value does the source give for B14 here?
The value was 139 MFI.
